# Laboratory results taken from paper PMC9902533, “Direct digital sensing of protein biomarkers in solution”.
# What was measured:
# FUS-SNAP = FUS-SNAP (UniProt P35637 1-526); experiment: microchip free-flow electrophoresis (DigitISA); 700 nM aptamer, 2 uM FUS, condensates present; monomer-bound vs free; 10 mM HEPES pH 7.4, 0.05% Tween-20, room temperature (IgE; fibrils and exosomes same buffer); FUS: 50 mM Tris-HCl pH 7.4, 25 mM KCl, 0.02% Tween-20, on-chip desalting; oligomers: from PBS pH 7.4, on-chip desalting; conditions: protein: recombinant; tags: SNAP; label: 3'-Atto488
# [1] = target: alpha-synuclein oligomers (human, UniProt P37840 1-140); experiment: microchip free-flow electrophoresis, single-molecule counting (DigitISA); 100 nM aptamer; complex 32.7 pM; 10 mM HEPES pH 7.4, 0.05% Tween-20, room temperature (IgE; fibrils and exosomes same buffer); FUS: 50 mM Tris-HCl pH 7.4, 25 mM KCl, 0.02% Tween-20, on-chip des
# CD63 on exosomes = CD63 on exosomes (human? (MDA-MB-231 breast cancer cell …, UniProt P08962 2-238)); experiment: microchip free-flow electrophoresis, single-particle counting (DigitISA); 5, 50, 100 nM aptamer; isolated exosomes; 10 mM HEPES pH 7.4, 0.05% Tween-20, room temperature (IgE; fibrils and exosomes same buffer); FUS: 50 mM Tris-HCl pH 7.4, 25 mM KCl, 0.02% Tween-20, on-chip desalting; oligomers: from PBS pH 7.4, on-chip desalting; conditions: protein: native; tags: none; label: fluorescent label, not specified
# Chain of CD63 on exosomes (human? (P08962 2-238): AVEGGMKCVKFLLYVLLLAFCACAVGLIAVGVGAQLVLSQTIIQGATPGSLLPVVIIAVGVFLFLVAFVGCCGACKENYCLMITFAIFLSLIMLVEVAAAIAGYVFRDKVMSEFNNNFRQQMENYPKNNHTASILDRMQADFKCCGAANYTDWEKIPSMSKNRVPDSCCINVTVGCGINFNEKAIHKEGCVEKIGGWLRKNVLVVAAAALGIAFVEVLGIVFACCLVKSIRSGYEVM
# Chain of FUS-SNAP (P35637 whole entry): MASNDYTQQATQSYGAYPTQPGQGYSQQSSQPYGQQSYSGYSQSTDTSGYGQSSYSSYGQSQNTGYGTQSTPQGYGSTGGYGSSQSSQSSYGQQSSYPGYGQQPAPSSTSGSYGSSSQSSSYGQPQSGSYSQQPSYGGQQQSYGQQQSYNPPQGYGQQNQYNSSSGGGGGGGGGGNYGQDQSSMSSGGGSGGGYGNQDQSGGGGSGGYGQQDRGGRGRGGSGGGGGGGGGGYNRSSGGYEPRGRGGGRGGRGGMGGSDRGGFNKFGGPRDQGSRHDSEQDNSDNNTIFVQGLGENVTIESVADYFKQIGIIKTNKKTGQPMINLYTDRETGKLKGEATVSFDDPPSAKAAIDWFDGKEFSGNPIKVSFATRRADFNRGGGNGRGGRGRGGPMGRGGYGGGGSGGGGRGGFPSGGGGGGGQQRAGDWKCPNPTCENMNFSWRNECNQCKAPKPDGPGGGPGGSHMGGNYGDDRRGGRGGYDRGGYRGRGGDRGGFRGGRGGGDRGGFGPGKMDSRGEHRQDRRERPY
binder,measurement,setting,value
UUGUAUUUUGAGCUAGUUUGGUGAC (ssRNA) [GGUG RNA aptamer],Kd,FUS-SNAP,0.28 ± 0.02 µM
TTTTGGGTCGGCTGTCCGTGGGTGGGGA (structured_DNA) [T-SO606 aptamer],binding result,[1],binds
CACCCCACCTCGCTCCCGTGACACTAATGCTA (structured_DNA) [CD63 aptamer],binding result,CD63 on exosomes,binds
